# Where two headings read alike, the source gives them in different places. Where no end group is shown, it is not given here. [ ]: non-standard residue; d: D form. code ∗ = not defined here
# How the values were obtained:
# [1] = Stability of Exendin-4 derivatives under basic conditions (PBS pH 7.4, 40° C., LC-MS purity); type: physicochemical; details: for 5 days Relative Purity (%) / 10 days Relative Purity (%): compared with the corresponding sample at 0 day
# Procedure: (§1) 1 mg of each sample was dissolved in a buffer solution, which contains 150 mM sodium chloride and 20 mM phosphate, from which a solution of concentration of 4 mg/ml was prepared and its pH is 8.0. The testing sample solutions were placed in a thermostat of 40° C. LC-MS was used to determine the purity of polypeptide. Correlation between the reduction ratio of the main peak area and time reflects the chemical stability of the polypeptide. Expressed as a percentage, purity is the percentage corresponding to the target peak in the total of all peaks including impurities. Using LC, the main peak was separated from any impurities, and the relative percentages of main peak and impurities at times 0 (before incubation at 40° C. at pH 4.5-8) and after 5, 10 and 15 days were determined. MS was used to identify the main peak as the target molecule. The main peak area plus the peak areas of any impurities gives a total equal to 100%, with relative purity calculated at a certain time (5, 10 or 15 days) against the purity at time 0 compared to the purity before incubation at 40° C. at pH 4.5-8.
# (§2) The following method was used to determine the chemical stability of various modified exendins having a sequence identity of at least 90% to SEQ ID no. 17 under acidic/basic conditions. […] Purity was determined by LC-MS as percentage of the target peak in the total of all peaks including impurities as described in example 3.
# (§3) 4 mg Exendin-4 derivative polypeptide (described in Table 3 above) was taken and dissolved in PBS buffer (KH2PO4 0.27 g/L, Na2HPO4 1.42 g/L, NaCl 8 g/L and KCl 0.2 g/L, pH 7.4) so as to prepare a solution at concentration of 4 mg/ml. The testing sample solutions were placed in a thermostat setting at 40° C. LC-MS was used to determine the purity of polypeptide. The chemical stability of the polypeptide was expressed as the correlation between the reduction ratio of the main peak area and time.
# [2] = type: physicochemical; details: for 0 day Purity (%) / 5 days Purity (%) / 5 days Relative Purity (%) / 10 days Purity (%) / 10 days Relative Purity (%) / 15 days Purity (%) / 15 days Relative Purity (%): pH 4.5, 40° C.; for 5 days Relative Purity (%) / 10 days Relative Purity (%) / 15 days Relative Purity (%): compared with the corresponding sample at 0 day
# Procedure: as §1, §2
# as §3, with “2 below)” for “3 above)”, “was” for “was taken and”, “20 mM sodium” for “PBS”, “(pH 4.5)” for “(KH2PO4 0.27 g/L, Na2HPO4 1.42 g/L, NaCl 8 g/L and KCl 0.2 g/L, pH 7.4)”, “time and determined as described above.” for “time.”
# [3] = Test for the stability of the polypeptide (LC-MS purity, pH 8.0, 40° C.); type: physicochemical; details: for Purity (%) 0 day: 4 mg/ml
# Procedure: The following method was used to determine the chemical stability of some polypeptides in the present invention.
# as §1
# normal mice = test: Oral glucose tolerance test in normal mice after subcutaneous injection; type: in vivo; details: unit not given
# Source text: Polypeptide of SEQ ID NO: 25 was modified with polyethylene glycol of molecular weight of about 40,000 (sample 4 as described in Examples 3 and 4 above).
# [4] = first day after s.c. injection, dosage (20)
# [5] = first day after s.c. injection, dosage (80)
# [6] = third day after s.c. injection, dosage (20)
# [7] = third day after s.c. injection, dosage (80)
substance,measurement,setting,value
HGEGTFTSDLSKQMEEEAVRLFIEWLKQGGPSSGAPPPK* [Sample 5],0 day Purity (%),[1],98.3%
same,5 days Purity (%),[1],95.7%
same,5 days Relative Purity (%),[1],97.36%
same,10 days Purity (%),[1],94.2%
same,10 days Relative Purity (%),[1],95.83%
same,0 day Purity (%),[2],98.3%
same,5 days Purity (%),[2],96.3%
same,5 days Relative Purity (%),[2],97.97%
same,10 days Purity (%),[2],95.1%
same,10 days Relative Purity (%),[2],96.74%
same,15 days Purity (%),[2],94.1%
same,15 days Relative Purity (%),[2],95.73%
HdAEGTFTSDL SKQMEEEAVR LFIEWLKNGG PSSGAPPPC-NH2 [Sample 2-1],0 day Purity (%),[2],98.0%
same,5 days Purity (%),[2],93.8%
same,5 days Relative Purity (%),[2],95.71%
same,10 days Purity (%),[2],89.6%
same,10 days Relative Purity (%),[2],91.43%
same,15 days Purity (%),[2],86.7%
same,15 days Relative Purity (%),[2],88.47%
same,main impurity,"[2]; stability test, cysteine at C-terminal end",dimers formed by oxidization of the mercapto-groups
same,stability of the polypeptide (conclusion in words),[3],not very stable
same,Purity (%) 0 day,[3],98%
same,Purity (%) 5th day,[3],93.1%
same,Purity (%) 10th day,[3],90.4%
same,Purity (%) 15th day,[3],88.2%
HdAEGTFTSDL SKQMEEEAVR LFIEWLKNGG PSSGAPPPC-PEG40K [Sample 4],0 day Purity (%),[1],99.7%
same,5 days Purity (%),[1],99.0%
same,5 days Relative Purity (%),[1],99.30%
same,10 days Purity (%),[1],98.2%
same,10 days Relative Purity (%),[1],98.50%
same,stability compared with samples 2-1 and 9-1,[2],even higher stability
same,0 day Purity (%),[2],99.7%
same,5 days Purity (%),[2],99.4%
same,5 days Relative Purity (%),[2],99.70%
same,10 days Purity (%),[2],99.3%
same,10 days Relative Purity (%),[2],99.60%
same,15 days Purity (%),[2],99.0%
same,15 days Relative Purity (%),[2],99.30%
same,stability of the polypeptide (conclusion in words),[3],very stable
same,Purity (%) 0 day,[3],99.7%
same,Purity (%) 5th day,[3],99.4%
same,Purity (%) 10th day,[3],99.0%
same,Purity (%) 15th day,[3],99.3%
same,AUC (area under the curve of the blood glucose level),normal mice; [4],176.4 ± 22.0 mg·h/dL
same,Blood Glucose level 0 min,normal mice; [4],116.6 ± 10.8 mg/dL
same,Blood Glucose level 30 min,normal mice; [4],95.7 ± 9.9 mg/dL
same,Blood Glucose level 60 min,normal mice; [4],88.9 ± 28.6 mg/dL
same,Blood Glucose level 120 min,normal mice; [4],65.4 ± 5.1 mg/dL
same,AUC (area under the curve of the blood glucose level),normal mice; [5],166.6 ± 16.7 mg·h/dL
same,Blood Glucose level 0 min,normal mice; [5],122.2 ± 9.1 mg/dL
same,Blood Glucose level 30 min,normal mice; [5],92.1 ± 12.4 mg/dL
same,Blood Glucose level 60 min,normal mice; [5],76.7 ± 8.7 mg/dL
same,Blood Glucose level 120 min,normal mice; [5],64.9 ± 7.5 mg/dL
same,AUC (area under the curve of the blood glucose level),normal mice; [6],253.6 ± 24.4 mg·h/dL
same,Blood Glucose level 0 min,normal mice; [6],96.2 ± 8.6 mg/dL
same,Blood Glucose level 30 min,normal mice; [6],172.8 ± 33.2 mg/dL
same,Blood Glucose level 60 min,normal mice; [6],132.1 ± 12.4 mg/dL
same,Blood Glucose level 120 min,normal mice; [6],88.3 ± 7.8 mg/dL
same,AUC (area under the curve of the blood glucose level),normal mice; [7],217.0 ± 21.9 mg·h/dL
same,Blood Glucose level 0 min,normal mice; [7],89.5 ± 9.3 mg/dL
same,Blood Glucose level 30 min,normal mice; [7],149.3 ± 32.4 mg/dL
same,Blood Glucose level 60 min,normal mice; [7],108.6 ± 8.8 mg/dL
same,Blood Glucose level 120 min,normal mice; [7],77.1 ± 8.4 mg/dL
HdAEGTFTSDL SKQMEEEAVR LFIEWLVKGG PSSGAPPPK* (H[dA]EGTFTSDLSKQMEEEAVRLFIEWLVKGGPSSGAPPPK(code ∗); reading uncertain; also: C-terminal modification (*)) [Sample 11],0 day Purity (%),[1],98.3%
same,5 days Purity (%),[1],97.1%
same,5 days Relative Purity (%),[1],98.78%
same,10 days Purity (%),[1],96.4%
same,10 days Relative Purity (%),[1],98.07%
same,0 day Purity (%),[2],98.3%
same,5 days Purity (%),[2],96.7%
same,5 days Relative Purity (%),[2],98.37%
same,10 days Purity (%),[2],95.9%
same,10 days Relative Purity (%),[2],97.56%
same,15 days Purity (%),[2],94.8%
same,15 days Relative Purity (%),[2],96.44%
HdAEGTFTSDL SKQNleEEEAVR LFIEWLKQGG PSSGAPPPS-NH2 [Sample 3],0 day Purity (%),[1],98.9%
same,5 days Purity (%),[1],98.6%
same,5 days Relative Purity (%),[1],99.70%
same,10 days Purity (%),[1],98.5%
same,10 days Relative Purity (%),[1],99.60%
same,0 day Purity (%),[2],98.9%
same,5 days Purity (%),[2],98.7%
same,5 days Relative Purity (%),[2],99.80%
same,10 days Purity (%),[2],98.7%
same,10 days Relative Purity (%),[2],99.80%
same,15 days Purity (%),[2],98.6%
same,15 days Relative Purity (%),[2],99.70%
same,Purity (%) 0 day,[3],98.9%
same,Purity (%) 5th day,[3],98.8%
same,Purity (%) 10th day,[3],98.8%
same,Purity (%) 15th day,[3],98.8%
HdAEGTFTTSDL SKQNleEEEAVR LFIEWLKQGG PSSGAPPPC(AM) [Sample 9-2],0 day Purity (%),[1],99.0%
same,5 days Purity (%),[1],98.8%
same,5 days Relative Purity (%),[1],99.80%
same,10 days Purity (%),[1],98.7%
same,10 days Relative Purity (%),[1],99.70%
same,0 day Purity (%),[2],99.0%
same,5 days Purity (%),[2],98.9%
same,5 days Relative Purity (%),[2],99.90%
same,10 days Purity (%),[2],98.8%
same,10 days Relative Purity (%),[2],99.80%
same,15 days Purity (%),[2],98.8%
same,15 days Relative Purity (%),[2],99.80%
HdAEGTFTTSDL SKQNleEEEAVR LFIEWLKQGG PSSGAPPPC-PEG40K [Sample 13],0 day Purity (%),[1],99.8%
same,5 days Purity (%),[1],99.3%
same,5 days Relative Purity (%),[1],99.50%
same,10 days Purity (%),[1],98.9%
same,10 days Relative Purity (%),[1],99.10%
same,stability compared with samples 2-1 and 9-1,[2],even higher stability
same,0 day Purity (%),[2],99.8%
same,5 days Purity (%),[2],99.6%
same,5 days Relative Purity (%),[2],99.80%
same,10 days Purity (%),[2],99.7%
same,10 days Relative Purity (%),[2],99.90%
same,15 days Purity (%),[2],99.5%
same,15 days Relative Purity (%),[2],99.70%

# Reference: patent US8716221B2, “Modified exendins and uses thereof” (priority 2005, dated 2014)
